Source: the supplement of paper PMC9170038

test system: MS2 coat protein; test: apparent KD of MS2 coat protein; higher = weaker reporter binding; conditions: Eterna round: R107; input ligand: theophylline 2 mM
In short: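 Apparent KD was obtained for each design as the median of normalised binding-curve fits over its clusters. RNA switches transcribed on-chip from Illumina sequencing clusters were titrated with SNAP-549-labelled MS2 coat protein (twofold steps, 0.7 or 1.5 nM to 3 µM) in 100 mM Tris-HCl pH 7.5, 80 mM KCl, 4 mM MgCl2, without or with constant ligand.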

Row | Sequence | apparent KD of MS2 coat protein
1 | UGUAUGUGAUCUGAUACCAGAGUUGAUAAUCUGAGGAUCACCCUGGUAAGGCGAAAGCCGCUCCCUUGGCAGCAGAUCGCAUACU | 244 nM
2 | UUCUGGUCCCGUGAUACCAGAGACAUGAGGAUCACCCAUGUACAUGAGGAUCACCCAUGUUUCCCUUGGCAGCACUGCAGUGAGC [Exclusion Theophylline B GF 15] | 332 nM
3 | AAAGAUCGGAAACGAUCGGCGGCUUGGGCGCGAGGACCGGUACGGCCGCCACUCGGGAAACAUGAGGAUCACCCAUGUUGCUUCU [ETA NP+V+V2 #16] | 11.9 nM
4 | CACAUGAGGAUCACCCAUGUCUGAACUGAAGGAGCGCUAAAUAAGGCAGGUAGGUCGCGGAAUCCUGUGUGCAUAUGCACACGGG [9.X] | 28.9 nM
5 | GAUAACAUGAGGAUCACCCAUGUGGCGUCGCGAGGACCGGUACGGCCGCCACUCGGCAGUUCAACUCGAAUAUAGUGAUCGAAGU [theeternabot_sameState_MS2_Trp_A_16] | 223 nM
6 | UACCGAUGAAGAAGGAGCGUAUGCUUAUAUGAUGGUAACAUGAGGAUCACCCAUGUCAGUAUACAGGUAGGUCGCUUCAUCGGUA [EAB NP+V+V2 #22] | 73.3 nM
7 | AAAGGACAUGAGGAUCACCCAUGUCUCGAUACCAGCCGAUCAUCAGGCCCUUGGCAGCGAGACAAGGGUCAUGGAUCGCGGUUCU [Beerusmage] | 12.3 nM

same assay, conditions: Eterna round: R107; input ligand: tryptophan 2.4 mM

Row | Sequence | apparent KD of MS2 coat protein
8 | UACGCUAGGGCGGCCGCCACUCGGACAUGAGGAUCACCCAUGUCGAUUAAUUGAAGGACAUGAAUGAGGACCGGGCUAAGCUAGG [Same State - Tryptophan B / B] | 23.4 nM
9 | UGUGCAUGAGUUGGAAAAGCUCAUGGGCAUCGAGGACCGGUACGGCCGCCACUCGGCUGUACAUGAGGAUCACCCAUGUCAGGGU [#1 Same State - Tryptophan A Attempt #23 (HarryS)] | 891 nM
10 | GAACAUAUGGAUACUAUUAUGAGCACAGAAGGAGCGAGCGGAAGCUCAGGUAGGUCGCUGGGUAACAUGAGGAUCACCCAUGUUG [XArg-A sub1] | 20.8 nM
11 | ACAUGAGGAUCACCCAUGUUCCUCUUUGAUACCAGUGAGUUGUUUCGCCCUUGGCAGCGAGUGUUUGUUUUUUUGUUUUGUUUGG [6.S] | 229 nM
12 | UUGUUGUUUGGAAGGAGCGUGGAUGAGUUAGAACAUGAGGAUCACCCAUGUUGGAUGAUACCACAGGUAGGUCGCCGGGUGGUGG [11.Z] | 21.4 nM
13 | AACAUGAGGAUCACCCAUGUCCUCGUGAUUCGAGGACCGGUACGGCCGCCACUCGGUCCUCGCGAGGUGGAGUCAAAGACUCCAA [Omei Trp A SS A v3] | 327 nM
14 | GCACGACAUGAGGAUCACCCAUGUGCAGAUACCAGUAAUGUAUGUUACCCUUGGCAGCUGAGUAGGUCUGGAGGGCUAUAGGUUU [Same State Theophylline A GF13] | 14.1 nM
15 | CUCCCGUGAGCGGCCGCCACUGGAGGCCUCGCGCGACAUGAGGAUCACCCAUGUUGGCCCGGCCUCAGGACCGGGUUCGCGCGAG [Same State - Tryptophan B Attempt #5 (HarryS)] | 7.41 nM
16 | UGACAUUGCUCAGAUACCAGACAUGAGGAUCACCCAUGUACCAAGGUACCCGAAAGGAAUGUCCCUUGGCAGCUGAGCAAUGUCU [TheoBX 3 #MS2Left #Theo2 #StaticStem] | 11 nM
17 | AAACGUUGCUGCGAUACCAGACAUGAGGAUCACCCAUGUACCGAGGUACCCGAAAGGAAUGUCCCUUGGCAGCGCAGCAACGAAA [MAT - Exclusion Theophlline B - Mod of Eli - D24] | 11.7 nM
18 | GGUUGGUUUAUAUAUAGAUUGAUUACUGAAGGAGCGGGAAAUAACCCAGGUAGGUCGCAGAGAUCCACAUGAGGAUCACCCAUGU [!0.I] | 42.9 nM
19 | AGUCUUAAUGGAAGGAGCGCAGUCAUAACAUGAGGAUCACCCAUGUCGAGGUGAGGGUCAUUGCAGGUAGGUCGCCAUACUAGAA [Same State - Arginine B (Freestyle 1)] | 125 nM
20 | CUUACGGGAAACCGACCCAAACAACGGGAAGGAGCGCCAAACAAGGCAGGUAGGUCGCCCACAUGAGGAUCACCCAUGUGUUGGG [Exclusion Arginine A GF 26] | 45.1 nM
21 | AAUUGCGUUGGUGAGGCGGUUAAUGGCGAUACCAGCGUGGAAACACGCCCUUGGCAGCGCCAAAACAUGAGGAUCACCCAUGUUA [Liberec] | 82.5 nM
22 | UUAUUUAUAGGGUAUAUCAGAUUAACUGAAGGAGCGUGGUAAUUCACAGGUAGGUCGCAGAUGGAACAUGAGGAUCACCCAUGUU [JR_ExcArginiA_Sub015] | 20.8 nM
23 | AGAAGUCCAGACUACACGUGGAAAAGCGAUACCAGACUCAUAGGUGUCCCUUGGCAGCGCGUAACAUGAGGAUCACCCAUGUGAU [theeternabot_exclusion_MS2_Theo_A_9] | 133 nM
24 | AAUAAUAAGGCGGCCGCCACUAAACAUGAGGAUCACCCAUGUCUCGAGCGCAUGCAUAAGGGAUGUAGGACCGGGCCAAUAAUAA [Exclusion - Tryptophan B (Freestyle 2)] | 23.6 nM

Row | Sequence | apparent KD of MS2 coat protein
25 | CCAUACGUAACUGAUACCAGUGUACUGACAUGAGGAUCACCCAUGUUGGGUUUUGUUGUACACCCUUGGCAGCAGAAUCGUAUGG [AstrosExyTheB#19] | 65.8 nM
26 | AAAUAAACAUCGGCCGCCACUUACUCAUGAGGUAACAACAUGAGGAUCACCCAUGUUUGAGGAUCAAGGACCGGGAUGUAAUAAA [AstrosSSTryB#1] | 19.6 nM
27 | ACACGAAGCUGAAGGAGCGUGGUACAAGUUUUUACAUGAGGAUCACCCAUGUUUCGUCAAUCACAGGUAGGUCGCAGAUGCGUGA [#08 Same State - Arginine B] | 25.9 nM
28 | ACACAUGAGGAUCACCCAUGUCCAAUAGAUACCAGUGAUACAGUGCACCCUUGGCAGCUGUUACUGAGUAAUGGUUCCCUCGGAA [Same State Theophylline A GF2] | 37.5 nM
29 | UUAUUUAUAAUGGAUACCAGUUUAAUGGCCGCAAAUCCUGACAUGAGGAUCACCCAUGUAAGCCCUUGGCAGCUGUUAUGGGUUU [XTheo B #24] | 35.2 nM
30 | UCAUGCAGGUCGGCCGCCACUACACACAUGAGGAUCACCCAUGUAGUUACUGGGUGAAGUGGCAGUAGGACCGGGACCUGCAUAU [Brourdmod08] | 559 nM
31 | AUACAUGAGGAUCACCCAUGUCAUUCAGAAGGAGCGUCAUUUUAGACAGGUAGGUCGCUGUUAUUUUUAUUAUUCUUUAUGUUUU [JR_Nu_ExcArginiA_Sub025] | 20.5 nM
32 | UGUAUGUGAUCUGAUACCAGAGUUGAUAAUCUGAGGAUCACCCUGGUAAGGCGAAAGCCGCUCCCUUGGCAGCAGAUCGCAUACU | 884 nM
33 | UUCUGGUCCCGUGAUACCAGAGACAUGAGGAUCACCCAUGUACAUGAGGAUCACCCAUGUUUCCCUUGGCAGCACUGCAGUGAGC [Exclusion Theophylline B GF 15] | 147 nM
34 | CACAUGAGGAUCACCCAUGUCUGAACUGAAGGAGCGCUAAAUAAGGCAGGUAGGUCGCGGAAUCCUGUGUGCAUAUGCACACGGG [9.X] | 19.8 nM
35 | AGUACUCGAACGGAUACCAGCCGGACAUGAGGAUCACCCAUGUCCUACCAUGUUUCGGUUGGCCCUUGGCAGCCGUUCGUGUACA [Omei Theo B SS A v1] | 736 nM
36 | UAUAACAUGAGGAUCACCCAUGUAAGUGAUACCAGAUAAAUAAUAGUCCCUUGGCAGCAUAUUGGGAAAAUGUAUAAUAUAUAUU [Same State - Theophylline A (Freestyle 1)] | 49.4 nM
37 | ACAUGAACAUGAGGAUCACCCAUGUAUGAUACCAGAAAAGAAGAGUUCCCUUGGCAGCGUACAACACAUGAGGAUCACCCAUGUG [kvcmullin] | 26.1 nM
38 | UACCGAUGAAGAAGGAGCGUAUGCUUAUAUGAUGGUAACAUGAGGAUCACCCAUGUCAGUAUACAGGUAGGUCGCUUCAUCGGUA [EAB NP+V+V2 #22] | 45.8 nM
39 | AAAGGACAUGAGGAUCACCCAUGUCUCGAUACCAGCCGAUCAUCAGGCCCUUGGCAGCGAGACAAGGGUCAUGGAUCGCGGUUCU [Beerusmage] | 13.9 nM
40 | ACAUGAACAUGAGGAUCACCCAUGUGGGAUACCAGCGUGUAUGAGCGCCCUUGGCAGCUCAUGACAUGAGGAUCACCCAUGUUGG [Exclusion Theophylline A 4] | 224 nM
